In the supplement of paper PMC10266784:

B1: library; numbered along this chain (parent)
chain: MAAAAAAAAEQQSSNGPVKKSMREKAVERRSVNKEHNSNFKAGYIPIDEDRLHKTGLRGRKGNLAICVIILLFILAVINLIITLVIWAVIRIGPNGCDSMEFHESGLLRFKQVSDMGVIHPLYKSTVGGRRNENLVITGNNQPIVFQQGTTKLSVENNKTSITSDIGMQFFDPRTQNILFSTDYETHEFHLPSGVKSLNVQKASTERITSNATSDLNIKVDGRAIVRGNEGVFIMGKTIEFHMGGNMELKAENSIILNGSVMVSTTRLPSSSSGDQLGSGDWVRYKLCMCADGTLFKVQVTSQNMGCQISDNPCGNTH

Variants of: B1
Assay: SGCB cell-surface expression functional score (HA stain, bin4 vs bin1, normalised to synonymous) (log10 ratio); higher = more cell-surface SGCB (functional)
Method: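 Deep mutational scan of full-length human SGCB (YFP-SGCB-HA, NNN codon sublibraries A-F) delivered by lentivirus at low MOI into ADG-HEK293 cells stably expressing SGCA, SGCD and SGCG. YFP-positive cells were stained for surface HA on unpermeabilized cells and FACS-sorted into bins. The functional score is log10(frequency in high bin 4 / frequency in low bin 1), normalised per chunk so that synonymous variants have mean 0 and SD 0.5. Scores are the median over codons and over duplicate biological replicates; scores below -0.5 are called non-functional. Scale: negative means deleterious.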

Variant | SGCB cell-surface expression functional score (log10)
S279L | 0.22
K124P | 0.61
M235N | 1.02
L198A | -1.81
A224M | 0.59
F189G | -1.93
E104K | 0.13
A8S | 0.05
M305P | -0.21
K202G | -0.02
N199L | -0.05
N199H | 0.18
M100Q | -1.26
A203Q | -0.5
E252A | 0.53
F146T | -1.45
S164D | 0.11
S181Y | -1.76
A291N | 0.17
N304W | 0.2
I178N | -0.4
N134T | -0.26
L153A | -1.08
I86K | -0.65

Variant | SGCB cell-surface expression functional score (log10)
Q303C | 0.15
V220R | -1.12
G306L | -0.44
Y285I | -1.22
P17W | -0.2
L153E | -0.79
S272T | -0.52
T213N | 0.03
H187C | 0.07
H36L | -0.04
K152W | 0.3
M100Y | -2.14
L135R | -0.77
E252D | -0.26
S13I | -0.1
L277M | -0.2
N211E | 0.12
L107D | -0.74
Q11P | 0.41
I309H | -0.32
I86M | -0.18
G236V | -1.25
T160Q | -1.26
I47N | 0.73

Variant | SGCB cell-surface expression functional score (log10)
R23D | -0.13
G274L | 0.03
N37M | -0.37
E206P | -0.42
G280F | 0.08
Q299M | -0.25
Q176F | -0.66
C307G | -0.44
K219G | -0.33
A6P | 0.11
N177V | 0.4
T182A | -1.25
A88L | 0.14
S164F | -1.08
S271T | 0.3
K34Q | -0.08
V32E | -0.59
F110P | -1.35
M262C | 0.37
D215I | -0.99
S197N | -0.61
L277G | -0.19
K196I | -0.46
F110Y | -0.99

Variant | SGCB cell-surface expression functional score (log10)
D98C | -0.07
S38K | 0.36
F171R | 0.04
K111F | -0.85
L57F | 0.06
L287A | -0.96
G117A | -0.7
W87F | 0.33
N63A | -0.08
G167C | -2.06
T151S | 0.27
T294H | -0.74
L64M | -1.4
N157K | -0.19
L249R | -0.27
E49Q | -0.19
E10W | -0.16
G245I | 0.57
I78H | 0.1
D311L | 0.05
L295Q | -0.13
E185R | -0.63
A3S | -0.23
T150G | -0.22

Variant | SGCB cell-surface expression functional score (log10)
F296N | -0.63
F171E | -1.22
G106T | -0.86
S210I | -0.9
G306R | -0.84
G117N | 0.02
I162P | -1.25
C97M | -0.29
K152V | 0.52
A291K | -0.46
L287G | -0.84
K54P | -0.04
G43K | 0.2
G129T | -0.06
G129E | -0.9
N15T | 0.14
S302H | 0.54
G62T | -0.09
Q12S | 0.04
R23G | 0.48
G236H | -1.67
S154R | 0.01
R223T | 0.4
S279H | -0.04

Variant | SGCB cell-surface expression functional score (log10)
N158W | -0.42
I45H | 0.03
K124N | 0.4
S271E | -0.22
T163M | -1.06
E101T | -0.54
A7K | 0.48
I225D | 0.7
L80T | 0.42
G149S | -0.12
I239D | -1.13
N15E | 0.33
L198I | -0.47
N33F | 0.1
R131A | 0.14
S197E | -0.43
I82C | 0.11
H190P | 0.42
G128Q | -0.11
G16F | 0.52
A3R | 0.15
I255F | 0.37
N312C | -0.41
E252C | 0.5

Variant | SGCB cell-surface expression functional score (log10)
M235Q | 0.65
A88H | 0.49
V32T | -0.08
E104V | 0
S271V | 0.17
D281G | -0.06
V155G | -1.18
L287V | -0.04
K250M | 0.98
E188H | -0.17
H242Q | 0.68
T150N | 0.07
I234M | 0.48
T209Y | -0.71
E185V | -0.42
T150R | -0.26
D221V | 0.59
S254G | 0.08
F102A | -1.01
E188T | -0.38
Q112V | -0.18
G149E | -0.93
F73K | 0.54
